The text below walks through data of the RNAGym collection of RNA variant scans (doi:10.7554/elife.80360).

B1: Hairpin Ribozyme (parent)
chain: GUCCUCUUUCACGUGCGCGUGAAAGAGAGAAGUGAACCAGAGAAACACACGUUGUGGUAUAUUACCUGGUA

The data set covers variants of B1. Briefly: self-cleavage, relative activity (ratio to wild type); higher = more cleavage; co-transcriptional.
Consider GUCCUCUUUGACGUGCGCGUGAAAGAGAGAAGUGAACCAGAGAAACACACGUGGUGGUAUAUUACCUGGUA [C10G U53G], for which the self-cleavage is 0.632.

For the variant GUCCUCUUUCACGUGCGCGUGAAAGAGAGAAGUGAACCAGAGAAACACAGGUUGCGGUAUAUUACCUGGUA [C50G U55C], the self-cleavage is 0.16.

As for GUCCUCUUUCACCUGCGCGUGAAAGAGAGAAGGGAACCAGAGAAACACACGUUGUGGUAUAUUACCUGGUA [G13C U33G], the self-cleavage amounted to 0.207.

For GUCCUCUUUCACGUUCGCGUGAAAGAGAGAAGUGAACCAGAGAAACACACGUUGUGGUAUAUUUCCUGGUA [G15U A64U], the self-cleavage was determined as 0.139.

Turning to GUCCUCUUUUACGUACGCGUGAAAGAGAGAAGUGAACCAGAGAAACACACGUUGUGGUAUAUUACCUGGUA [C10U G15A], the self-cleavage was 0.722.

In the case of GUCCUCUUUCACGUGCGCGUGAAAGAGAGAAGUGAACCAGAGAAAGACACGUUGUGGAAUAUUACCUGGUA [C46G U58A], the self-cleavage is 0.256.

For the variant GUCCUCUUUCACGUGCGCGUGAAAGAGAGAAGUGAACCAGAUAAACACACGUUGUGGUAUAUUACCUGGUC [G42U A71C], the self-cleavage turned out to be 0.6.

Take GUCCUCUUACACGUGCGCGUGAAAGAGAGUAGUGAACCAGAGAAACACACGUUGUGGUAUAUUACCUGGUA [U9A A30U]: the self-cleavage was found to be 0.195.

In the case of GUCCUGUUUCACGUGCGCGUGAAAGAGAGAAGUGAACCAGAGAAACACACGUUGUGGUAUGUUACCUGGUA [C6G A61G], the self-cleavage came to 0.147.

GUCCUCUUUCACGUGCGCGUGAACGAGAGAAGUGAACCAGAGAAACACACGUUGAGGUAUAUUACCUGGUA [A24C U55A]: the self-cleavage turned out to be 0.267.

With GUCCUCUUUCACGUGCGCGUGAAAGGGAGAAGUGAACCAGAGAAACACACGAUGUGGUAUAUUACCUGGUA [A26G U52A], the self-cleavage came to 0.896.

With GUCCUCUUUCACGUGCGCGUGAAAGAGAGAAGUGAACCAGAGAAACACACGUUGUGGUAUAUUAUCCGGUA [C65U U67C], the self-cleavage is 0.209.

In the case of GUCCUCUUUCACGUGCGCGUCAAAGAGAGAAGUGAACCAGAGAAACACACGUUGUGUUAUAUUACCUGGUA [G21C G57U], the self-cleavage was determined as 0.189.

For GUCCCCUUUCAAGUGCGCGUGAAAGAGAGAAGUGAACCAGAGAAACACACGUUGUGGUAUAUUACCUGGUA [U5C C12A], the self-cleavage amounted to 0.566.

As for GUCCUCUUUCACGUGCGCGUGAUAGAGAGAAGUGAACAAGAGAAACACACGUUGUGGUAUAUUACCUGGUA [A23U C38A], the self-cleavage was 0.17.

Take GUCCUCUUUCACGUGCGCGUGUAAGAGAGAAGUGAACUAGAGAAACACACGUUGUGGUAUAUUACCUGGUA [A22U C38U]: the self-cleavage is 0.41.

For the variant GUCCUCUUUCACGUGCGCGUGAAAGAGAGAAGUGACCCAGAGGAACACACGUUGUGGUAUAUUACCUGGUA [A36C A43G], the self-cleavage was 0.131.

As to GUCCUCUUUCACGUGCGCGUGAAAAAGAGAAGUGAACCAGAGAAACACACGUUGUUGUAUAUUACCUGGUA [G25A G56U], the self-cleavage was found to be 0.117.

As to GACCUCUUUCACGUGCGCGUGAAAGAGAGAAGUGAACCAGAGAAACACACGUUGUGGUAUAUUAACUGGUA [U2A C65A], the self-cleavage came to 0.222.

As to GUCCUCUUUCACGUGCGCGUGAAAGAGCGAAGUGAACCAGAGAAACACACGUUGAGGUAUAUUACCUGGUA [A28C U55A], the self-cleavage came out at 0.155.

For the variant GUCCUCUAUCACGUGCGCGUGAAAGAGAGAAGUGAACCAGAGAAACACACGUUGUGGUAGAUUACCUGGUA [U8A U60G], the self-cleavage amounted to 0.439.

Turning to GUCCUCUUUCACGUGCGCGUGAAAGAGAGACGUGAACCAGAGAACCACACGUUGUGGUAUAUUACCUGGUA [A31C A45C], the self-cleavage was 0.0871.

With GUCCUCGUUCCCGUGCGCGUGAAAGAGAGAAGUGAACCAGAGAAACACACGUUGUGGUAUAUUACCUGGUA [U7G A11C], the self-cleavage was determined as 0.481.

On to GUCCUCUUUCACGUCCGCGUGAAAGAGAGAGGUGAACCAGAGAAACACACGUUGUGGUAUAUUACCUGGUA [G15C A31G], for which the self-cleavage is 0.692.

Take GUCCUCUUUCACGUGCGCGUGGAAGAGAGAAGUGAACCAGAGAAACACACGUUGUGGUAUAAUACCUGGUA [A22G U62A]: the self-cleavage stood at 0.189.

With GUCCUCCUUCACGUGCGCGUGAAAGAGAGAAGUGAACCAGAGAAACACACGUUGGGGUAUAUUACCUGGUA [U7C U55G], the self-cleavage amounted to 0.344.

GUCCUCUAUCACGUGCGCGUGAAAGAGAGUAGUGAACCAGAGAAACACACGUUGUGGUAUAUUACCUGGUA [U8A A30U]: the self-cleavage amounted to 0.0488.

Turning to GUCUUCUUUCACGUGCGCGUGAAAGAGAGAAGUGAACCAGAGAAAUACACGUUGUGGUAUAUUACCUGGUA [C4U C46U], the self-cleavage turned out to be 0.152.

In the case of GUCCUCUUUCACGUGCGCGUGAAAGAGAGAAGUGAACCAUAGAAACACACGUUGUGGUAUAUUACCUCGUA [G40U G68C], the self-cleavage is 0.163.

Take GUCCUCUUUCACGCGCGCGUGAAAGAGAGUAGUGAACCAGAGAAACACACGUUGUGGUAUAUUACCUGGUA [U14C A30U]: the self-cleavage was found to be 0.148.

GUCCACUUUCACGUGCGCGUGAAAGAGAGAAGUGAACCAGAGAAACACACGUUGUGGUCUAUUACCUGGUA [U5A A59C]: the self-cleavage was 0.262.

For the variant GUCCUCUUUCACGUGCGCGUGAAAGCGAGAAGUGAACCAGAGAACCACACGUUGUGGUAUAUUACCUGGUA [A26C A45C], the self-cleavage was 0.155.

For GUCCUCUUUCACGUGCGCCUGAAAGAGAGAAGUGAACCAGACAAACACACGUUGUGGUAUAUUACCUGGUA [G19C G42C], the self-cleavage was 0.329.

Regarding GUCCCCUUUCACGUGCGCGUGAAAGAGAGAAGUGAACCAGAGAAACACACGUUGUGGUAUAUUACCUUGUA [U5C G68U], the self-cleavage stood at 0.127.

As for GUCCUCCUUCACUUGCGCGUGAAAGAGAGAAGUGAACCAGAGAAACACACGUUGUGGUAUAUUACCUGGUA [U7C G13U], the self-cleavage amounted to 0.788.

As to GUCCUCUUUCACGUGCGCGUGAAGGAAAGAAGUGAACCAGAGAAACACACGUUGUGGUAUAUUACCUGGUA [A24G G27A], the self-cleavage turned out to be 0.401.

In the case of GUCCUCUUUCAUGUGCGCGUAAAAGAGAGAAGUGAACCAGAGAAACACACGUUGUGGUAUAUUACCUGGUA [C12U G21A], the self-cleavage is 0.748.

Turning to GUCCUCUUUCACGUGCGCGUGAAAGAGAGAAGUGAACCAGAGAAACACACCUUGUGGUGUAUUACCUGGUA [G51C A59G], the self-cleavage is 0.166.
